Data set [1] deals with T1, BP (B…US) (Arabidopsis thaliana, UniProt P46639 1-398).
T1 sequence: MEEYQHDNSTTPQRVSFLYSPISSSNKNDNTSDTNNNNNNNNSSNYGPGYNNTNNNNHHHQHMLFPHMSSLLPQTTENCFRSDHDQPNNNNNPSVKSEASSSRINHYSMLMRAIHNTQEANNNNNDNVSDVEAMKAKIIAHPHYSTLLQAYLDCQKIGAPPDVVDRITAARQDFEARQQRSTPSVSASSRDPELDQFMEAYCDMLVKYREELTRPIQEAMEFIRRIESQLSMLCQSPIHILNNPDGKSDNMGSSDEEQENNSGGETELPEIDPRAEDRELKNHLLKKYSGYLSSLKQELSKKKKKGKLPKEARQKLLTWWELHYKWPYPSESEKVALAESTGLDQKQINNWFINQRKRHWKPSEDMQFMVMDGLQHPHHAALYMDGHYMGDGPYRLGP
In words: EMSA; LightShift Chemiluminescent EMSA kit (Thermo) per manufacturer's protocol; buffer, salt, pH and temperature not stated. The settings on record: protein: recombinant; tags: GST (pGEX4T-3); label: biotin; blunt. (In general: In EMSA bound probe runs differently from free probe, usually more slowly.)

Data set [2] has as its target T1, BP (B…US). In words: competition; unlabeled competitor against biotin-labelled N1; signal gradually decreased; LightShift Chemiluminescent EMSA kit (Thermo) per manufacturer's protocol; buffer, salt, pH and temperature not stated. Conditions: protein: recombinant; tags: GST (pGEX4T-3); blunt.

Here are results for two molecules from PMC9866879, “BREVIPEDICELLUS Positively Regulates Salt-Stress Tolerance in Arabidopsis thaliana”.

B1: XTH7 promoter probe (TGAC) (dsDNA)
DNA 1: TGTAATGCTGACACGTGTCCCAGT
DNA 2: ACTGGGACACGTGTCAGCATTACA
On to B1, for which the binding result in data set [1] was “binds”.

B2: XTH7 promoter probe, unlabeled competitor (dsDNA)
DNA 1: TGTAATGCTGACACGTGTCCCAGT
DNA 2: ACTGGGACACGTGTCAGCATTACA
As to B2, in data set [2], the binding result is listed as “binds”.
